Results reported in the supplement of paper PMC9112550, “Optimization of the antimicrobial peptide Bac7 by deep mutational scanning” (BMC Biology, 2022).
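Note: peptides expressed intracellularly from a pBAD plasmid library in pooled LB shake-flask culture, induced with 0.3% L-arabinose, DNA abundance read by NGS, three biological replicates, DESeq2 with apeglm shrinkage.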

The sequences below were run on Escherichia coli TOP10 (assay: shrunken log2 fold change of peptide-encoding DNA abundance (4.5 h post-induction vs induction); higher = less antimicrobial activity (less host growth inhibition)). Settings: time post-induction: 4.5 h; library: site-saturation at positions 5, 18, 19, 20.
RRIRGRPPRLPRPRPRPFGWPRP was tested, and the “shrunken log2 fold change” value was 0.741. For RRIRGRPPRLPRPRPRPHLCPRP, the “shrunken log2 fold change” value was 0.58. In the case of RRIRSRPPRLPRPRPRPSLPPRP, the “shrunken log2 fold change” value is reported as -0.352. RRIRKRPPRLPRPRPRPRFYPRP was tested, and the “shrunken log2 fold change” value was 0.33. For RRIRHRPPRLPRPRPRPSWCPRP, the “shrunken log2 fold change” value was -0.453. For RRIRQRPPRLPRPRPRPTYPPRP, the “shrunken log2 fold change” value was 0.0397. In the case of RRIRNRPPRLPRPRPRPQADPRP, the “shrunken log2 fold change” value is reported as -0.0176. With RRIRMRPPRLPRPRPRPALPPRP the “shrunken log2 fold change” value was 0.363. With RRIRARPPRLPRPRPRPWHHPRP the “shrunken log2 fold change” value was -0.168. RRIRCRPPRLPRPRPRPTHSPRP was tested, and the “shrunken log2 fold change” value was 0.288. With RRIRVRPPRLPRPRPRPSHQPRP the “shrunken log2 fold change” value was 0.0669. RRIRWRPPRLPRPRPRPCCYPRP was tested, and the “shrunken log2 fold change” value was -0.295. In the case of RRIRYRPPRLPRPRPRPHDLPRP, the “shrunken log2 fold change” value is reported as -0.00151. In the case of RRIRSRPPRLPRPRPRPLPGPRP, the “shrunken log2 fold change” value is reported as 0.0761. RRIRLRPPRLPRPRPRPMQHPRP was tested, and the “shrunken log2 fold change” value was 0.256. In the case of RRIRKRPPRLPRPRPRPYKPPRP, the “shrunken log2 fold change” value is reported as -0.0134. With RRIRYRPPRLPRPRPRPLKIPRP the “shrunken log2 fold change” value was -0.134. RRIRMRPPRLPRPRPRPRIFPRP was tested, and the “shrunken log2 fold change” value was 0.011. With RRIRQRPPRLPRPRPRPVYTPRP the “shrunken log2 fold change” value was -0.143. With RRIRNRPPRLPRPRPRPNKNPRP the “shrunken log2 fold change” value was -0.406. For RRIRIRPPRLPRPRPRPKQPPRP, the “shrunken log2 fold change” value was 0.102. RRIRARPPRLPRPRPRPWIKPRP was tested, and the “shrunken log2 fold change” value was -0.0328. In the case of RRIRNRPPRLPRPRPRPPMSPRP, the “shrunken log2 fold change” value is reported as -0.0527. For RRIRLRPPRLPRPRPRPKYFPRP, the “shrunken log2 fold change” value was -0.269. RRIRQRPPRLPRPRPRPKQKPRP was tested, and the “shrunken log2 fold change” value was -0.0585. With RRIRYRPPRLPRPRPRPKPIPRP the “shrunken log2 fold change” value was 0.0874. For RRIRDRPPRLPRPRPRPQHTPRP, the “shrunken log2 fold change” value was -0.403. In the case of RRIRPRPPRLPRPRPRPKLFPRP, the “shrunken log2 fold change” value is reported as 0.18. RRIRGRPPRLPRPRPRPFHVPRP was tested, and the “shrunken log2 fold change” value was -0.0412. In the case of RRIRDRPPRLPRPRPRPEVAPRP, the “shrunken log2 fold change” value is reported as 0.563. In the case of RRIRVRPPRLPRPRPRPIAEPRP, the “shrunken log2 fold change” value is reported as 0.127. For RRIRQRPPRLPRPRPRPFDVPRP, the “shrunken log2 fold change” value was 0.028. RRIRERPPRLPRPRPRPQSYPRP was tested, and the “shrunken log2 fold change” value was -0.0192. RRIRYRPPRLPRPRPRPFIFPRP was tested, and the “shrunken log2 fold change” value was -1.01. With RRIRTRPPRLPRPRPRPLHEPRP the “shrunken log2 fold change” value was -0.191. With RRIRFRPPRLPRPRPRPFRDPRP the “shrunken log2 fold change” value was -0.276. With RRIRSRPPRLPRPRPRPNWVPRP the “shrunken log2 fold change” value was -0.214. In the case of RRIRGRPPRLPRPRPRPLWCPRP, the “shrunken log2 fold change” value is reported as 0.204. With RRIRKRPPRLPRPRPRPYYYPRP the “shrunken log2 fold change” value was -0.704. RRIRDRPPRLPRPRPRPELRPRP was tested, and the “shrunken log2 fold change” value was 0.621. RRIRWRPPRLPRPRPRPGWCPRP was tested, and the “shrunken log2 fold change” value was 0.362. RRIRHRPPRLPRPRPRPAHNPRP was tested, and the “shrunken log2 fold change” value was -0.366. In the case of RRIRRRPPRLPRPRPRPLTLPRP, the “shrunken log2 fold change” value is reported as -0.142. For RRIRCRPPRLPRPRPRPRHTPRP, the “shrunken log2 fold change” value was -0.0438. For RRIRERPPRLPRPRPRPDPKPRP, the “shrunken log2 fold change” value was 0.00358. In the case of RRIRMRPPRLPRPRPRPYGIPRP, the “shrunken log2 fold change” value is reported as -0.0497. With RRIRNRPPRLPRPRPRPCHNPRP the “shrunken log2 fold change” value was -0.818. RRIRQRPPRLPRPRPRPDFTPRP was tested, and the “shrunken log2 fold change” value was -0.134. For RRIRGRPPRLPRPRPRPRIMPRP, the “shrunken log2 fold change” value was 0.506. RRIRQRPPRLPRPRPRPYRLPRP was tested, and the “shrunken log2 fold change” value was -0.19. For RRIRQRPPRLPRPRPRPDEAPRP, the “shrunken log2 fold change” value was -0.0116. In the case of RRIRDRPPRLPRPRPRPWLFPRP, the “shrunken log2 fold change” value is reported as 0.0977. For RRIRVRPPRLPRPRPRPYTNPRP, the “shrunken log2 fold change” value was -0.656. For RRIRVRPPRLPRPRPRPMTRPRP, the “shrunken log2 fold change” value was -0.123. With RRIRHRPPRLPRPRPRPRTMPRP the “shrunken log2 fold change” value was -0.0671. For RRIRNRPPRLPRPRPRPYNTPRP, the “shrunken log2 fold change” value was -1.49. With RRIRGRPPRLPRPRPRPCSFPRP the “shrunken log2 fold change” value was 0.2. With RRIRCRPPRLPRPRPRPAIRPRP the “shrunken log2 fold change” value was -0.0579. RRIRPRPPRLPRPRPRPMIAPRP was tested, and the “shrunken log2 fold change” value was -0.0488. RRIRKRPPRLPRPRPRPEANPRP was tested, and the “shrunken log2 fold change” value was 0.0281. For RRIRLRPPRLPRPRPRPDIVPRP, the “shrunken log2 fold change” value was -0.0115. In the case of RRIRVRPPRLPRPRPRPPQNPRP, the “shrunken log2 fold change” value is reported as 0.188. In the case of RRIRKRPPRLPRPRPRPLKSPRP, the “shrunken log2 fold change” value is reported as 0.713. With RRIRKRPPRLPRPRPRPPHTPRP the “shrunken log2 fold change” value was 0.534. For RRIRRRPPRLPRPRPRPLLQPRP, the “shrunken log2 fold change” value was 0.512. In the case of RRIRYRPPRLPRPRPRPMIWPRP, the “shrunken log2 fold change” value is reported as -0.00195. RRIRWRPPRLPRPRPRPTSHPRP was tested, and the “shrunken log2 fold change” value was -0.26. In the case of RRIRRRPPRLPRPRPRPCQQPRP, the “shrunken log2 fold change” value is reported as -0.0197. RRIRARPPRLPRPRPRPCVHPRP was tested, and the “shrunken log2 fold change” value was 1.06. With RRIRERPPRLPRPRPRPAQEPRP the “shrunken log2 fold change” value was 0.597. RRIRRRPPRLPRPRPRPSAEPRP was tested, and the “shrunken log2 fold change” value was 0.716. With RRIRARPPRLPRPRPRPWLFPRP the “shrunken log2 fold change” value was 0.547. In the case of RRIRWRPPRLPRPRPRPERQPRP, the “shrunken log2 fold change” value is reported as 0.353. For RRIRTRPPRLPRPRPRPYDMPRP, the “shrunken log2 fold change” value was 0.0197. RRIRGRPPRLPRPRPRPPIHPRP was tested, and the “shrunken log2 fold change” value was 0.108.
